# Legend:
# [1] = molecular target: vascular endothelial growth factor receptor 1 (VEGFR1) (UniProt P17948); experiment: SPR (Biacore X), VEGFR1 immobilised on a CM5 chip per paragraph 186; four sensorgrams with fitted curves
# [2] = molecular target: vascular endothelial growth factor receptor 1 (VEGFR1) (UniProt P17948); experiment: SPR (Biacore X), VEGFR1 immobilised on a CM5 chip per paragraph 186; compared with the linear peptide CQRPPR at 1 mM
# vascular endothelial growth factor receptor 1 (VEGFR1), sequence (P17948 27-756 limits assumed): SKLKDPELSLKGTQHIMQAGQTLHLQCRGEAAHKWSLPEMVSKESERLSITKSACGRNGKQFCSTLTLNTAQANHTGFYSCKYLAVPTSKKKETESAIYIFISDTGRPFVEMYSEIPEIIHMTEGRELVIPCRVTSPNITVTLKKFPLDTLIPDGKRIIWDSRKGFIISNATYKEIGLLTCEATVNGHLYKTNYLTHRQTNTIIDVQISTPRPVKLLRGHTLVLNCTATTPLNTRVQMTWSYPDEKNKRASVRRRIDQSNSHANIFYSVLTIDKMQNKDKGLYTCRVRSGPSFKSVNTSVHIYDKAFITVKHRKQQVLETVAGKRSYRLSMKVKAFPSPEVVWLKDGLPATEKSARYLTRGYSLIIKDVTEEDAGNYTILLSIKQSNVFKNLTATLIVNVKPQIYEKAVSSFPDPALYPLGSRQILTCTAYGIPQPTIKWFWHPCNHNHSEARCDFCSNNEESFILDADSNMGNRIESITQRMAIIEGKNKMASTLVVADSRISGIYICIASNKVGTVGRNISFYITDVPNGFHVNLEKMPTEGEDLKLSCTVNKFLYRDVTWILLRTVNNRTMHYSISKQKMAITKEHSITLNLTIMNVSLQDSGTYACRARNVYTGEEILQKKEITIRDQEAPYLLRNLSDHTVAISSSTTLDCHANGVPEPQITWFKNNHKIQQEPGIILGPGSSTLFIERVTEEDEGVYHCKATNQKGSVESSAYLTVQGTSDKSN
substance,measurement,setting,value
bipodal peptide drawn as CQRPPR-GGG-[W--W hairpin]-G-RIPKNR,Kd,[1],212 nM
same,fold increase in affinity,[2],> 10000 fold

# Reference: patent publication US20150330991A1, “METHOD FOR IMPROVING TARGET AFFINITY OF PEPTIDE” (GWANGJU INSTITUTE OF SCIENCE AND TECHNOLOGY, priority 2012, published 2015)
